According to patent US20240026383A1 (priority 2020, published 2024):
Numbering of substitutions follows the chain as printed. Where “and” joins values, the source holds several entries; their conditions need not be identical. Equal values may be shown once. Read-outs that look alike come from different tables or passages of the source.

B1: Tag1: theophylline dependent T4 td intron after ATG of FnCas12a; −4P, −5P, −6P; 5′ exon TCCtcaGGT; SEQ ID NO: 49 (nucleic acid)
DNA: TCCTCAGGTTAATTGAGGCCTGAGTATAAGGTGACTTATACTTGTAATCTATCTAAACGGGGAACCTCTCTAGTAGACAATCCCGTGCTAAATTGATACCAGCATCGTCTTGATGCCCTTGGCAGCATAAATGCCTAACGACTATCCCTTTGGGGAGTAGGGTCAAGTGACTCGAAACGATAGACAACTTGCTTTAACAAGTTGGAGATATAGTCTGCTCTGCATGGTGACATGCAGCTGGATATAATTCCGGGGTAAGATTAACGACCTTATCTGAACATAATGCTA
modifications: Tag1 T4 td intron with the theophylline aptamer
B2: Tag4: theophylline dependent T4 td intron tag; −4M, −5P, −6P; 5′ exon TCCtctGGT; SEQ ID NO: 48 (nucleic acid)
DNA: B1 DNA with A6T
modifications: Tag4 T4 td intron with the theophylline aptamer
B3: Tag2: theophylline dependent T4 td intron tag; −4W, −5P, −6P; 5′ exon TCCtcgGGT; SEQ ID NO: 46 (nucleic acid)
DNA: B1 DNA
modifications: Tag2 T4 td intron with the theophylline aptamer
B4: Tag3: theophylline dependent T4 td intron tag; −4W, −5W, −6P; 5′ exon TCCttgGGT; SEQ ID NO: 47 (nucleic acid)
DNA: B1 DNA with C5T, A6G
modifications: Tag3 T4 td intron with the theophylline aptamer

Key:
Flavobacterium IR1 = assay: Theophylline toxicity assay on growth; assay type: cell-based; conditions: 24 hours at 25° C.
Method: Because theophylline uptake from IR1 appears to be a prerequisite, a toxicity assay was carried out on the growth of IR with varying theophylline concentrations ([…]) grown for 24 hours at 25° C. […] The arrow indicates the time when theophylline was added to the medium. […] Therefore, 2 mM of theophylline was used for inducing the intron splicing in following experiments.

[1] = tested on: lacZ gene from E. coli interrupted with the T4 td intron; assay: LacZ colorimetric (β-galactosidase) assay of T4 td intron exon variants; assay type: cell-based
Source text: To investigate the effect of the flanking regions of the T4 td intron on its splicing efficiency and on the expression of the target gene, a series of constructs were made containing the lacZ gene from E. coli with the intron in between amino acids D6 and S7 (see FIG. 5). These amino acids were identified because insertion at this location would be least likely to impact on the structure of the protein. The lacZ gene was used because its functional expression can be easily monitored by a colorimetric assay and because of its high tolerance for modification at the 5′ end. LacZa is interrupted with the T4 td intron and therefore non-functional. Upon self-splicing and excision of the intron, the ORF of LacZa is complete and functional. LacZa encodes for β-galactosidase which is able to hydrolyse ortho-nitrophenyl-β-D-galactopyranoside (ONPG) into β-D-galactose and ortho-nitrophenol (ONP). ONP can be measured through colorimetric assays. Mutations were made by PCR in the 5′ flank as depicted in Table 1.
All position numbers are relative to the 5′ splice site. […] Since there is the possibility of base pairing, the effect of disallowing base pairing was assessed. If there is no interaction between position −7 and the Internal Guide Sequence (IGS), (the sequence at P1 that forms the base pairing with the 5′ exon sequence), and no difference in LacZ activity should be observed. The −7 position was mutated (while all other nucleotides remained WT) to form either a wobble pair or a mismatch. The self-splicing activity of the three intron variants for β-galactosidase activity was assessed after overnight growth.
This is similar to the situation with the −7 position. Therefore, point mutations at the +296 position of the T4 td intron were made to see if they might impact on the splicing activity of the intron. The WT +296 position (mismatch) was mutated by PCR (Table 2) to form either a pair or a wobble pair with the P1 loop. All mutants were assayed for β-galactosidase activity after overnight growth.
This investigated the effect of altering positions −4 to −6 in all possible combinations of pair (P), mismatch (M) and wobble pair (W) (if applicable) whilst preserving all the other bases as WT. With reference to FIGS. 1 and 4A, positions −4 to −6 is GUU (positions −6 to −4 are UUG) and these pair or interact with UGA at positions +12 to +14, respectively.
In FIG. 8 the wild type intron (*) is (sequences shown from 5′ to 3′) PWM/(UUG) and set to 1. All other LacZ activities are a fraction of the wild type activity. PMP reads either UAA or UGA both being stop codons (**). […] A wobble base pair at position −5 negates to a large extent the effect that −6 and −4 have on the splicing. […]

LacZa of E. coli MG1655 = assay: FnCas12a targeting assay with Tagged-T4 td intron variants (CFU drop plating); assay type: cell-based; conditions: T crRNA (LacZ), selection medium with 2 mM theophylline
Source text: Four different intron variants (as shown previously in FIG. 8), referred to as “Tag1”, “Tag2”, etc. (Tag1: −4P, −5P, −6P; Tag2: −4W, […] −4W, −5W, −6P; Tag4: −4M, −5P, −6P) are inserted directly after the start codon of the GOI (FnCas12a gene). The 5′ exon sequences of the four different tags are indicated: Tag1: TCCtcaGGT (SEQ ID NO: 7); Tag2: TCCtcgGGT (SEQ ID NO: 8); Tag3: TCCttgGGT (SEQ ID NO: 9); Tag4: TCCtctGGT (SEQ ID NO: 10). The 3′ exon sequence is conserved amongst the 4 different tags and indicated as CTA (SEQ ID NO: 12). The amino acids corresponding to the Tag sequences are indicated with capital bold letters above the Tagged-introns. Intron-less (wild-type) FnCas12a was used as a reference for comparison. Efficiency of targeting of the different Tagged-T4 td intron variants was assessed by using either a LacZa targeting (T) or a non-targeting (NT) crRNA and by comparing the amount of colony forming units (CFUs) of transformed E. coli MG1655 per μg of plasmid used (CFUs μg^−1). CFU was determined by the number of colonies observed.
Electrocompetent E. coli MG1655 were transformed (2.5 kV, 200 Ω, 25 μF) with 10 ng μL^−1 of the respective plasmid and recovered for 1 hour in 500 μL LB medium [10 g L^−1 tryptone (Oxoid), 5 g L^−1 yeast extract (BD), 10 g L^−1 NaCl (Acros)] at 37° C. Then, the recovered culture was serially diluted and drop plated on selective (50 μg mL^−1 kanamycin) LB agar plates in the presence or absence of 2 mM theophylline. The agar plates were incubated at 30° C. for 24 hours and the CFUs were counted.
E. coli MG1655 was transformed with a series of plasmids (listed in Table 4) and serially diluted and drop plated on selective (kanamycin) LB media with or without 2 mM theophylline. […] The effect of the CFU reduction was more apparent for the Tag4-intron where colonies could only be observed at the 10° dilution, followed by Tag3-intron (10^−1) then Tag2-intron (10^−2) and finally Tag1-intron ([…]).

[2] = tested on: LacZ gene of E. coli MG1655; assay: SIBR-Cas genome editing (HR and CRISPR-Cas counterselection) of LacZ; assay type: cell-based; conditions: for unbiased editing efficiency (LacZ deletion by PCR of randomly selected colonies): X-gal omitted from the medium; for editing efficiency: percentage of white colonies from total CFUs mL-1: blue/white screening, LacZ targeting, induced after 1 hour recovery
Source text: For efficient genome editing in bacteria, HR should precede CRISPR-Cas counterselection. To assess whether tight control over CRISPR-Cas targeting could bolster the efficiency of CRISPR-Cas mediated genome editing by allowing more time for HR to occur, we used SIBR-Cas and targeted the LacZ gene of E. coli MG1655 for knock-out through HR and CRISPR-Cas counterselection using a blue/white screening colony assay. To facilitate HR, we added 500 bp up- and down-stream homology arms to the plasmids expressing the four SIBR-Cas (Int1-4) and WT-FnCas12a variants that target the LacZ gene. After 1 hour recovery, we induced the expression of the SIBR-Cas variants to counterselect the WT from the mutant colonies.
Since disruption of LacZ can also be achieved through non-HR mediated approaches (spontaneous mutations or occasional error-prone DNA repair following DNA cleavage by Cas12a), not all gene deletions can be screened phenotypically. Therefore, we repeated our experiment, but X-gal was omitted from the medium to eliminate the possibility of false-positives. Randomly selected colonies that were obtained were screened by PCR for LacZ deletion showing a 0%, 0%, 29% and 38% editing efficiency for Int1, Int2, Int3 and Int4 SIBR-Cas variants, respectively (FIG. 24C). […] The observed decrease in editing efficiency (compared to the blue/white screening) might be attributed to spontaneous LacZ mutations that escape CRISPR-Cas counterselection. Nevertheless, a high editing efficiency (38%) was observed when SIBR-Cas Int4 was used without the use of recombinases or any other complex systems.

FlgM gene of P. putida = assay: Knock-out of the FlgM gene by homologous recombination with tagged-intron-FnCas12a; assay type: cell-based, Pseudomonas putida; conditions: T crRNA, 2 mM theophylline
Method: Further genome editing experiments were conducted to knock-out the FlgM gene of P. putida. A repair template (1125 bp) was included on the plasmids bearing approximately 500 bp homologous sides upstream and downstream of the FlgM gene. The repair template was introduced to either of the four tagged-intron-FnCas12a variants along with the T crRNA for counterselection or the NT crRNA as a control. Plasmids were transformed to P. putida through electroporation and the transformed cells were recovered in LB medium for 2 hours before plating on LB agar plates containing 50 μg ml^−1 kanamycin and 2 mM theophylline. Plates were incubated at 30° C. overnight and formed colonies were screened through colony PCR for the knock-out of the FlgM gene. […] Tag1 to Tag4 represent the four different Tagged-intron variant plasmids which contain the T (targeting) or the NT (non-targeting) crRNA. […] On the contrary, transformants bearing plasmids with an NT crRNA were all WT.

Molecule | self-splicing activity ranking of the Tag/Int variants [1] | dilution at which colonies could be observed (LacZa of E. coli MG1655) | unbiased editing efficiency (LacZ deletion by PCR of randomly selected colonies) [2] [%] | editing efficiency (FlgM knock-out by colony PCR) (FlgM gene of P. putida) [%] | also measured
Cn1c(=O)c2[nH]cnc2n(C)c1=O [Theophylline, theophylline] | – | – | – | – | growth of IR1 (Flavobacterium IR1; 5 and 10 mM of theophylline): decreased the growth; growth of IR1 (Flavobacterium IR1; theophylline concentration of up to 2 mM): did not affect significantly the growth
B1 | most “tight” | 10^−2 | 0 | 0 | self-splicing activity ranking of the Tag/Int variants ([1]; listed as Int1): worst; editing efficiency: percentage of white colonies from total CFUs mL-1 [2]: 0%
B2 | most “loose” | 10° | – | – | self-splicing activity ranking of the Tag/Int variants ([1]; listed as Int4): best splicer; unbiased editing efficiency (LacZ deletion by PCR of randomly selected colonies) ([2]; listed as Int4): 38%±6.41% and 38%; editing efficiency: percentage of white colonies from total CFUs mL-1 ([2]; listed as Int4): 80%±5.57% and 80%
B3 | – | 10^−2 | 0 | 39.3 | editing efficiency: percentage of white colonies from total CFUs mL-1 ([2]; listed as Int2): 1%±0.35% and 1%
B4 | – | 10^−1 | – | 36.6 | unbiased editing efficiency (LacZ deletion by PCR of randomly selected colonies) ([2]; listed as Int3): 29%±18.04% and 29%; editing efficiency: percentage of white colonies from total CFUs mL-1 ([2]; listed as Int3): 49%±8.75% and 49%
